Experimental data reported in article PMC8105298.

Biological target: p62 (UniProt Q13501)
Assay: co-IP of stathmin-GFP with Flag-p62
Conditions: reference: wild type stathmin-GFP; sites S63

stathmin (from UniProt P16949) S63A stathmin-GFP
binding against the reference: weaker
